Experimental findings from patent publication US20240010684A1, “MASP INHIBITORY COMPOUNDS AND USES THEREOF” (BAYER AKTIENGESELLSCHAFT, priority 2020, published 2024) are described below.

Bridges are numbered along the chain shown (N, C = ends). [ ]: non-standard residue; d: D form. Oic = O=C(O)[C@@H]1C[C@@H]2CCCC[C@@H]2N1; Trx = NC[C@H]1CC[C@H](C(=O)O)CC1; tBuAla = CC(C)(C)C[C@H](N)C(=O)O; Pen = CC(C)(S)[C@H](N)C(=O)O; NMeC = CN[C@@H](CS)C(=O)O; Abu = CC[C@H](N)C(=O)O; Ahx = NCCCCCC(=O)O; GABA = NCCCC(=O)O; Sar = CNCC(=O)O

Holding throughout (test): cell-based or functional assay
Assay [1] concerns the target T1, recombinant human MASP1 (amino acids 297-699, C-terminal His Tag) (human) (UniProt P48740).
T1 sequence: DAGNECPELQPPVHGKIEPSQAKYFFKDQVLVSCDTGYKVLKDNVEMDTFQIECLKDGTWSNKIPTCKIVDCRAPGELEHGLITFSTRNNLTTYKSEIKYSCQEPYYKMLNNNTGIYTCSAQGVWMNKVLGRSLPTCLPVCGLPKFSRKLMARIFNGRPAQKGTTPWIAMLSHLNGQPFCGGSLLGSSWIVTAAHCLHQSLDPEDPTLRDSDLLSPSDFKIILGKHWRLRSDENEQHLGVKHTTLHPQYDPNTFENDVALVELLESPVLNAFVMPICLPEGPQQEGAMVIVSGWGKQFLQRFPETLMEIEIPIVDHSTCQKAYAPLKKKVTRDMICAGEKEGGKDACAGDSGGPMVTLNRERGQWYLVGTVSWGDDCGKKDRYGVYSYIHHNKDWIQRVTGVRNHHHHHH

The target in assay [2] is recombinant human MASP2 (amino acids 297-686, C-terminal His Tag) (human) (UniProt O00187).
Assay [3] addresses recombinant human MASP2 (amino acids 297-686, C-terminal His Tag) (human), O00187.
Assay [4] deals with T2, recombinant human MASP1 (amino acids 297-699, C-terminal His Tag) (human), P48740.
T2 chain: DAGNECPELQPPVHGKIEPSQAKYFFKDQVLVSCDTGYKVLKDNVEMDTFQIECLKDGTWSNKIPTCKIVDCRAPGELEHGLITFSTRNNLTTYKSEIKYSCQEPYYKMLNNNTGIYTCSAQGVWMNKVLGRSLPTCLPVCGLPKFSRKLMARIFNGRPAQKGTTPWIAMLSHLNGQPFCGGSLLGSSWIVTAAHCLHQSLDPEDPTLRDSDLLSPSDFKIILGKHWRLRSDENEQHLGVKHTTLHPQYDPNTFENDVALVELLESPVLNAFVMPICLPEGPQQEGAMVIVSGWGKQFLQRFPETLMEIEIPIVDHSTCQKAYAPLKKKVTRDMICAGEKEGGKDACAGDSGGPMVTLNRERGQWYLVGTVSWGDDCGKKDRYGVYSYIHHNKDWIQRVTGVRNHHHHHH

In assay [5] the target is recombinant rat MASP2 (amino acids 296-685, C-terminal His Tag) (rat), Q9JJS8.
In assay [6] the target is T3, recombinant rat MASP1 (amino acids 302-704, C-terminal His Tag) (rat), Q8CHN8.
T3 chain: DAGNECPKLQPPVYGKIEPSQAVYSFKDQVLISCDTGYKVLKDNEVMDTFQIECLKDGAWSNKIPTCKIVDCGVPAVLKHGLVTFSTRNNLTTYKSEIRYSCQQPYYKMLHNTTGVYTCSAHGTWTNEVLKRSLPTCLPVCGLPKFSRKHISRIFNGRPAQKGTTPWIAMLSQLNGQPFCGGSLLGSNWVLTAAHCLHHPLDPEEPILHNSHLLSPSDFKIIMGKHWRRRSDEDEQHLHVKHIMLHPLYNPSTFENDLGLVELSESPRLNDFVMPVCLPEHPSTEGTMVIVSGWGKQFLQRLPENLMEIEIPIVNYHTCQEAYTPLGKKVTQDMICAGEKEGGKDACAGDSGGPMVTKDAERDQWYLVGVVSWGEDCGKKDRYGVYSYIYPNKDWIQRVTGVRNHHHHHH

Sequence of recombinant human MASP2 (amino acids 297-686, C-terminal His Tag) (human) (O00187 other isoform, or with tags, fused parts or gaps limits assumed): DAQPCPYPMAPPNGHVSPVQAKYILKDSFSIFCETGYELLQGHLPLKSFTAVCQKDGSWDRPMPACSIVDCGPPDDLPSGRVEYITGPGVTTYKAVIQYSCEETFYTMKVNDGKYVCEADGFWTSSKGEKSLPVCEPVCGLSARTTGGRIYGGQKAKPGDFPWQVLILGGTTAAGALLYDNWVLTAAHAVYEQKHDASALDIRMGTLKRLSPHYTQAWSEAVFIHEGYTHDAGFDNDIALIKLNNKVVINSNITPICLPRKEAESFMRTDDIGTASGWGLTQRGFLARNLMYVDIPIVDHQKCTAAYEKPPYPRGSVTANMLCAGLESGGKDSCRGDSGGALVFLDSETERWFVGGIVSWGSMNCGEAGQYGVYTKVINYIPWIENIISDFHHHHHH
Sequence of recombinant human MASP2 (amino acids 297-686, C-terminal His Tag) (human), O00187 (O00187 other isoform, or with tags, fused parts or gaps limits assumed): as above
Sequence of recombinant rat MASP2 (amino acids 296-685, C-terminal His Tag) (rat), Q9JJS8 (Q9JJS8 other isoform, or with tags, fused parts or gaps limits assumed): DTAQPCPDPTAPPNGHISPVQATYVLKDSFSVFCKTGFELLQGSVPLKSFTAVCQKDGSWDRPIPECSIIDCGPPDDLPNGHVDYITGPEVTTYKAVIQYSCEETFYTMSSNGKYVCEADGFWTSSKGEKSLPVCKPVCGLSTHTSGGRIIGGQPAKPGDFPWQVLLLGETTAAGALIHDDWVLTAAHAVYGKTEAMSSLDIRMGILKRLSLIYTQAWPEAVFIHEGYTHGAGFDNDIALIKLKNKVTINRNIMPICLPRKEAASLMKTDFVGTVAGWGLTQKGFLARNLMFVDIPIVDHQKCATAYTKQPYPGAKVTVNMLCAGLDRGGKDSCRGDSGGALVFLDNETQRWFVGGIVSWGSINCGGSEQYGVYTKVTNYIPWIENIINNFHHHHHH

B1: Example 30: (Ahx)**-GIC+SRS-((tBu)A)-PPI-((N-Me)C)+-IPD** (peptide)
peptide: cyclo([Ahx]GICSRS[tBuAla]PPI[NMeC]IPD)
modifications: disulfide 4-12; also: TFA salt
On to B1, for which, in assay [1], the human MASP1 IC50 worked out at 16 nM. Also, in assay [2], the human MASP2 IC50 is 65 nM.

B2: Example 36: (Gamma-Abu)**-IC+SRS-((tBu)A)-PPI-((N-Me)C)+-IPD** (peptide)
peptide: cyclo([GABA]ICSRS[tBuAla]PPI[NMeC]IPD)
modifications: disulfide 3-11; also: TFA salt
Turning to B2, the human MASP1 IC50 in assay [1] stood at 8.7 nM. Further, the human MASP2 IC50 in assay [2] worked out at 110 nM.

B3: Bicyclic SFTI-1: G**RC+TKSIPPIC+FPD** (peptide)
peptide: GRCTKSIPPICFPD
modifications: not checked
Turning to B3, the human MASP2 IC50 in assay [3] was over 3000 nM. Besides, the human MASP1 IC50 in assay [4] was over 3000 nM. Further, the rat MASP2 IC50 in assay [5] stood at 1000 nM. In addition, the rat MASP1 IC50 in assay [6] came to 1000 nM.

B4: Example 69: G**-(TXA)-GIC+SRS-((tBu)A)-PPI-((N-Me)C)+-IPD++-NH2 (peptide)
peptide: G[Trx]GICSRS[tBuAla]PPI[NMeC]IPD-NH2
modifications: disulfide 5-13; lactam N-16; also: TFA salt
Consider B4, for which the human MASP1 IC50 in assay [1] was determined as 20 nM. Besides, the human MASP2 IC50 in assay [2] is 190 nM.

B5: Example 76: (Ahx)**-((N-Me)G)-GIC+SRSLP-(Oic)-I-(Pen)+-IPE++-NH2 (peptide)
peptide: [Ahx][Sar]GICSRSLP[Oic]I[Pen]IPE-NH2
modifications: disulfide 5-13; lactam N-16; also: TFA salt
Take B5: the human MASP1 IC50 in assay [1] came to 9.7 nM. In assay [2], the human MASP2 IC50 was found to be 180 nM.

B6: Example 31: A**GAIC+SRS-((tBu)A)-PPI-((N-Me)C)+-IPD** (peptide)
peptide: cyclo(AGAICSRS[tBuAla]PPI[NMeC]IPD)
modifications: disulfide 5-13; also: TFA salt
Turning to B6, the human MASP1 IC50 in assay [1] was 16 nM. In assay [2], the human MASP2 IC50 came out at 130 nM.

B7: Example 33: (Ahx)**-(Abu)-IC+SRS-((tBu)A)-PPI-((N-Me)C)+-IPD** (peptide)
peptide: cyclo([Ahx][Abu]ICSRS[tBuAla]PPI[NMeC]IPD)
modifications: disulfide 4-12; also: TFA salt
B7: in assay [1], the human MASP1 IC50 came out at 28 nM. Moreover, the human MASP2 IC50 in assay [2] is 62 nM.

B8: Example 40: (Ahx)**-GIC+SRS-((tBu)A)-PPI-((N-Me)C)+-IPD++-NH2 (peptide)
peptide: [Ahx]GICSRS[tBuAla]PPI[NMeC]IPD-NH2
modifications: disulfide 4-12; lactam N-15; also: TFA salt
B8: the human MASP1 IC50 in assay [1] stood at 7.1 nM. The human MASP2 IC50 in assay [2] stood at 90 nM.
